Measured values taken from US20250320288A1, “METHOD OF TREATING VITILIGO WITH INTERFERON-GAMMA ANTIBODY” (Elixiron Immunotherapeutics (Hong Kong), priority 2022, published 2025).
Entries after “also recorded” stand apart in the source; their conditions may differ.

B1: CXCL11: IFN-γ downstream cytokine added to melanocytes (protein, UniProt O14625 22-94, looked up)
C-X-C motif chemokine 11: FPMFKRGRCLCIGPGVKAVKVADIEKASIMYPSNNCDKIEVIITLKENKGQRCLNPKSKQARLIIKKVERKNF
B2: CXCL9: IFN-γ downstream cytokine added to melanocytes (protein, UniProt Q07325 23-125, looked up)
C-X-C motif chemokine 9: TPVVRKGRCSCISTNQGTIHLQSLKDLKQFAPSPSCEKIEIIATLKNGVQTCLNPDSADVKELIKKWEKQVSQKKKQKNGKKHQKKKVLKVRKSQRSRQKKTT
B3: IFN-γ: recombinant human interferon gamma, cytokine added to melanocytes (protein, UniProt P01579 24-161, looked up)
Interferon gamma: QDPYVKEAENLKKYFNAGHSDVADNGTLFLGILKNWKEESDRKIMQSQIVSFYFKLFKNFKDDQSIQKSVETIKEDMNVKFFNSNKKKRDDFEKLTNYSVTDLNVQRKAIHELIQVMAELSPAAKTGKRKRSQMLFRG

How the values were obtained:
primary melanocytes [1] = test: Melanocyte cell viability after IFN-γ, chemokines, cell death inhibitors or 2A6Q, Day 2 and Day 7; assay type: cell-based, human; conditions: day 7 of treatment
Experimental: To determine cell viability of melanocyte after treatment with IFN-γ, CXCL9, CXCL10, CXCL11, at Day 2, and Day 7, the cells were collected and seeded into 96-well plates. After adhesion, cells were treated with IFN-γ (0, 10, 100 ng/ml) with different compounds: 2A6Q, CXCL9, CXCL10, CXCL11, ROS scavenger (NAC), necroptosis inhibitor (NEC-1), pyroptosis inhibitor (VX-765), apoptosis inhibitor (QVD-OPH), Ferroptosis inhibitor (Liproxstaitin-1, Ferrostatin-1, DFO). Cell viability was measured using a CellTiter-Glo luminescent cell viability assay kit (Promega) according to the manufacturer's protocol. The […] of the final reaction product was measured using a luminometer (SpectraMax® iD3 Multi-Mode Microplate Reader (Molecular Devices). After calculation, the viability of control cells was 100%, and all others were normalized to control and shown as relative cell viability (%). Treatment dosage N-acetylcysteine (NAC; 0.05 mM, 1 mM), Necrostatin-1 (NEC-1; 20 μM, 2 μM), Belnacasan (VX-765; 50 μg/mL, 5 μg/mL), Quinoline-Val Asp-Difluorophenoxymethylketone (QVD-OPH; 10 μM, 2 μM), Liproxstaitin-1 (10 μM, 5 μM, 1 μM, 0.05 μM), Ferrostatin-1 (5 μM, 1 μM), Deferoxamine (DFO; 10 μM, […], 1 μM, 0.05 μM), 2A6Q (10 μg/mL), CXCL9 (10 ng/mL, 10 pg/mL), CXCL10 (10 ng/ml, 10 pg/mL), CXCL11(10 ng/mL, 10 pg/mL).

[2] = system: human primary melanocytes (HEMn-DP); test: IFN-γ inhibition of human primary melanocyte cell viability (CellTiter-Glo); assay type: cell-based; conditions: 72 hrs at 37° C.
Experimental: Materials and methods: To examine the dose-dependency of IFN-γ inhibition of human primary melanocytes (HEMn-DP) cell viability, HEMn-DP cells were seeded into a 96-well plate at a concentration of 10,000 cells/well in 100 μL assay medium (M254 supplemented with 1× HMGS, 10 ng/mL PMA plus Penicillin-Streptomycin) at 37° C. for 5 hours. After seeding, 100 μL of IFN-γ serial dilutions were added, followed by incubation at 37° C. for 72 hrs. Then, cell proliferation was measured using CellTiter-Glo kit (Promega) according to the manufacturer's instructions. Luminescence was measured with an iD3 multimode reader (Molecular Devices), and data analyzed using nonlinear regression curve fit using GraphPad Prism7.

[3] = system: human primary melanocytes (HEMn-DP); test: IFN-γ inhibition of melanocyte melanogenesis (melanin content, absorbance 470 nm); assay type: cell-based
Experimental: Materials and methods: To examine the dose-dependency of IFN-γ inhibition of HEMn-DP cell melanogenesis, HEMn-DP cells were seeded into a 24-well plate at a concentration of 200,000 cells/well in 1 mL assay medium (M254 supplemented with 1× HMGS, 10 ng/mL PMA plus Penicillin-Streptomycin) with serial dilutions of IFN-γ, followed by incubation at 37° C. for 7 days. The cell assay medium was replaced by fresh medium with serially titrated concentrations of IFN-γ on day 3 and day 5. On day 7, cells were first washed with PBS twice, lysed in 250 μL of 1N NaOH/10% DMSO solution, then incubated at 80° C. for 1 hr. After lysis, each lysate was transfer to 96 well plate, and absorbance of melanin was then measured at […]. The relative melanin quantity was normalized with cell viability of each sample which was measured by CellTiter-Glo kit, and data were analyzed using nonlinear regression curve fit using GraphPad Prism7. To determine the potency of EI-001, HEMn-DP cells were seeded as previously described, and IFN-γ pre-incubated with indicated amounts of EI-001 for 25 min in 1 mL of assay medium. After incubation, the mixture was added to each well (final IFN-γ concentration is 20 ng/ml). Melanin content of melanocytes was determined as previously described.

primary melanocytes [4] = test: Cell morphology assay in melanocytes; assay type: cell-based, human
melanocytes [5] = test: Melanocyte apoptosis, Annexin V / 7AAD flow cytometry; assay type: cell-based, human; conditions: IFN-γ 10 or 100 ng/ml, 48 hrs
Experimental: Materials and methods: Melanocyte cell apoptosis was detected with Annexin V (BD, 550474) and 7AAD (1 mg/mL, Sigma A9400-1 MG). The cells were detached and resuspended with […] binding buffer (BD, 556454) containing Annexin V and 7AAD for 15 min at room temperature in the dark. Before analysis, cells were added to a […] binding buffer and immediately analyzed a on a flow cytometer (Verse BD).

melanocytes [6] = test: Intracellular ROS in melanocytes (CM-H2DCFDA); assay type: cell-based, human; conditions: 10 and 100 ng/mL IFN-γ, day 7
Experimental: Materials and methods: For intracellular ROS measurement, melanocytes were washed with PBS and incubated with 20 μM CM-H2DCFDA (Invitrogen) for 30 min at 37° C. in the dark. The cells were resuspended with PBS and examined with flow cytometry at an excitation wavelength of 488 nm and an emission wavelength of 530 nm; the data were analyzed with FlowJo.

melanocytes [7] = test: Lipid peroxidation in melanocytes (BODIPY 581/591 C11); assay type: cell-based, human; conditions: dose-dependent, Day 6
Experimental: For lipid peroxidation examination, melanocyte cells were seeded in a 6-well plate and treated with IFN-γ the next day. Melanocytes were washed with PBS and incubated with Hanks balanced salt solution (HBSS, Gibco) containing 5 μM BODIPY 581/591 C11 (Invitrogen, D3861) and incubated for 15 minutes at 37° C. in a tissue culture incubator. The cells were resuspended with fresh HBSS and examined with flow cytometry; the data were analyzed with FlowJo.

MITF = test: Melanin regulators in melanocytes (RNA sequencing, MITF immunoblot); assay type: cell-based, human
Source text: (§1) Total RNA was extracted from melanocytes with an RNA purification kit (Zymo Research, r2050). After RNA samples were extracted from primary melanocytes and melanocytes cell line (Gibco), the samples were sent to Biotools Co., Ltd Taiwan for RNA sequence. The RNA quality was examined by Agilent Technologies 2100 Bio-analyzer with an RNA integrity value greater than 8. After rRNA depletion (Epicenter), RNA fragmentation, and library preparation (Illumina), the constructed libraries were then performed 150 bp paired-end sequencing by an Illumina NovaSeq6000 sequencer. The results from each sample were aligned to the GRCh38 genome by the HISAT2 software and analyzed by Biotools Co., Ltd Taiwan.
(§2) Cells were washed in PBS and lysed in RIPA lysis buffer with proteases inhibitor and Phenylmethanesulfonyl fluoride (PMSF; Sigma-Aldrich, P7626). The total cell lysates were sonicated and centrifuged at 4° C., 13000 rpm for 30 min. Protein concentration was quantified using the Bradford assay. The total cell lysates were separated by SDS-PAGE and transferred to a PVDF membrane. The membrane was blocked with 5% BSA or 5% milk in TBST for 1 hour at room temperature and incubated with primary antibodies overnight at 4° C. and HRP-conjugated secondary antibodies for hour at room temperature. The protein was visualized by Thermo ibright1500. Primary antibodies were follows: anti-human SLC7A11 (CST, 12691), anti-human SLC3A2 (CST, 13180), anti-IRF1 (CST, 8478), anti-MITF (CST, 12590), and anti-GAPDH (Abcam, ab8245).

SLC7A11 = test: Ferroptosis regulators in melanocytes (RNA sequencing, SLC7A11 immunoblot); assay type: cell-based, human
Source text: as §1, §2

| Molecule | effect on cell viability of melanocytes (individual cytokine) (primary melanocytes [1]) | IC50 of IFN-γ causing 50% inhibition of melanocyte viability [2] | IC50 of IFN-γ causing 50% inhibition of melanocyte melanogenesis ([3]; human primary melanocytes, 7 days, melanin content) | melanin content of melanocytes under IFN-γ ([3]; spectrophotometer) | lowest concentration at which the morphology effect is present (primary melanocytes [4]; dose-dependent effect) | morphology change in melanocyte (loss of dendrite, ballooning of cytoplasm) (primary melanocytes [4]; primary melanocytes, 7 days of treatment) | early phase apoptosis in melanocytes (Annexin V) (melanocytes [5]) | intracellular ROS in melanocytes (melanocytes [6]) | lipid peroxidation level in melanocytes (melanocytes [7]) | expression of MITF (immunoblot) (MITF; melanocytes, 24 hrs of treatment) | expression of melanin regulators (MITF, MLANA, TYRP1, DCTT, TYR, TRPM1) (MITF; primary melanocyte, IFN-γ 100 ng/ml 24 hrs vs control, transcriptome) | expression of ferroptosis markers SLC7A11, SLC3A2, Ferritin, GPX4 and TFR1 (RNA sequencing) (SLC7A11; 24 hrs IFN-γ) | expression of SLC7A11 (immunoblot) (SLC7A11; 48 hours incubation with IFN-γ) |
| --- | --- | --- | --- | --- | --- | --- | --- | --- | --- | --- | --- | --- | --- |
| B1 | not CXCL9, CXCL10, or CXCL11 significantly decreases | – | – | – | – | – | – | – | – | – | – | – | – |
| B2 | not CXCL9, CXCL10, or CXCL11 significantly decreases | – | – | – | – | – | – | – | – | – | – | – | – |
| B3 | significantly decreases | 8.114 ng/mL | 0.392 ng/mL | decrease in melanin content in a dose-dependent manner | 1 ng/ml | contributes to morphology change | induced early phase apoptosis; also recorded: significantly upregulate Annexin V but not 7AAD | significantly elevated | increased | dose-dependently downregulates | induced downregulation of melanin regulators | downregulation | dose-dependently downregulated |
